Results as given in patent US20010016351.

Test system: GFP-CBP fusion protein (green fluorescent protein with C-terminal thrombin-cleavable calmodulin binding peptide tag, expressed from GFP Clone No. 2995-87.6 in BL21(DE3) cells) [GFP: P42212]

In the case of thrombin, the “cleavage of the fusion protein by thrombin at 6 h” value is reported as “Fifty percent cleavage was observed at 6 h” and the “cleavage of the fusion protein by thrombin at 24 h” value is reported as 95 percent cleavage was achieved at 24 h.
